Assay results from the nanobody polyreactivity screen of Harvey et al. (2022).

Experiment: yeast display, Sf9 membrane polyspecificity reagent, FACS + sequencing; frameworks hold sequencing errors
Outline: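 Polyreactivity labels are assigned by the sorting gate from which each nanobody was recovered. The gates were low and high (top ~1%), set on anti-HA fluorescence for expression and streptavidin fluorescence for reagent binding. Before sorting, galactose-induced (36–48 hours) yeast display cells were stained for 1 hour at 4 °C with 10% biotinylated, detergent-solubilized Sf9 membrane reagent.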

Row | Sequence | polyreactivity (PSR sort gate)
1 | QVQLVESGGGLVQAGGSLRLSCAASGSTFDPNAMGWYRQAPGKERELVAAITGRGGSTYYADSVKGRFTISRDTAKNTVYLQMNSLKPEDTAVYYCAAEYLGSIDTSYNYWGQGTQVTVSS | low polyreactivity
2 | QVQLVESGGGLVQAGGSLRLSSAASGRIFYGYAMGWYRQAPGKERELVAAISWSGGSTYYADSVKWRFTISRDNAKNTVYLQMNSLKPEDTAVYYCARRDRGGYKYDYWGQGTQVTVSS | high polyreactivity
3 | QVQLVESGGGLVQAGGSLRLSCAASGRIFAVNAMGWYRQAPGKERELVATIRGSGTSTYYADSVKGRFTISRDNAKNTVYLQMNSLKPEDTAVYYCAARGRYRQFNYWGQGTQVTVSS | high polyreactivity
4 | QVQLVESGGGLVQAGGSLSLSCAASGRLFKIDAMGWYRQAPGKERELVATISSGGRTNYADSVKGRFTISRDNAKNSVYLQMNSLKPEVTAVYYCNAGARVLYETESFDYWGQGIQVTVSS | low polyreactivity
5 | QVQLVESGGGLVQAGGSLRLICAASGSTFTQNAMGWYRQAPGKERELVAAISSSGTRTYYADSVKGRFTISRDNAKNTVYLQMNSLKPEDTAVYYCAATVYPSVYGENHYGYWGQGTKVTVSS | high polyreactivity
6 | QVQLVESGGGLVQAGGSLRLSCAASGSTFVVNTMGWYRQAPGKERELVAAITRRTTSTYYADSVKGRFTISRDNAKNTVYLQMNSLKPEDTAVYYCAAERRHYSTTYYYWGQGTQVTVSS | high polyreactivity
7 | QVQRVESGGGLVQAGGSLRLSCSASGFIFQLSAMGWYRQAPGTERELVAAITWRGGSTYYADSVKGRFTISRDNAKNTVYLQMYSLKPEDTAVYYCAASASWRGQRVPYGYWGQGTQVTVSS | high polyreactivity
8 | QVQLVESGGGLVQAGGSLRLSCAATGSIFDLNSMGWYRQAPGKEREVVAAISSGGGTYYADSVKGRFTISRDNANNTVFLQMNSLKPEDTAVYYCIRVTYRSRGRDYWGQGNQVTVSS | high polyreactivity
9 | QVQLVESGGGLVQAGGSLRLSCAASGRTFRYYTMGWYRQAPGKEREFVAAISSTGGTYYADSVKGRFTISRDNAKNTVYLQMNSLKPEDTAVYYCNATTSSNEYDSWGQGTQVTVSS | low polyreactivity
10 | QVQLVESGGGLVQAGGSLRLSCAASGRTFRIYAMGWYRQAPGKERELVAAITKRGGITYYADSVKGRFTISRDNAKNTVYFQMNSLKPEDTAVYYCNKLPEPYDYDYWGQGTQVTVSS | high polyreactivity
11 | QVQLVESGGGLVQAGGSLRLSCAASGSIFPRYAMGWYRQAPGKERELVAAISWSGGSTYYADSVKGRFTISRDNAKNTFYLQMNSLKPEDTAVYYCAALSKHVQVAYDPWGQGTQVTVSS | high polyreactivity
12 | QVQLVESGGGLVQAGGSLRLSSAASGNIFYTNTMGWYRQAPGKERELVAAITSGGTTYYADSVKGRFTISRDNAKNTVYLQMNSLKPEDTAVYYCAVRSSKWSWIYYYWGQGTQVTVSS | high polyreactivity
13 | QVQLVESGGCLVQAGGSLRLSCAASGSTYKLNAMGWYRQAPGKEREMVAAISRGGRTNYADSVKGRFTISRDNAKNTVYFQMNSLNPEDTAVYYCAKDVAGLFHVGALYYYWGQGSQVTVSS | low polyreactivity
14 | QVQLVESGGGLVQAGGSLRLSCDASGFTFKTNAMGWYRQAPGKERELVAAINRSGGSTYYADSVKGRFTISRDNAKNTVYLQMNSLKPEDTAVYYCATRSYLPGVRRGYDYWGQGTQVTVSS | high polyreactivity
15 | QVQLVESGGGLVQAGGSLRLSCAASGIIFYYYAMGWYRQAPGKERELVAAISWSGGSTYYADSVKGRFTISRDNAKNTVYLQMNSLKPEDTAVYYCAAAFSPGWWSRHTYDYDYWGQGTQVTVSS | high polyreactivity
16 | QVQLVESGGGIVQAVGSLRLSCAASGFTFFYYAMGWYRQAPGKERELVATISWNGGTTYYADSVKGRFTISRDNAKNTVYLQMNSLKPEDTAVYYCNARYDWTYLYDAGLVPGWDYDYWGQGTQLTVSS | low polyreactivity
17 | QVQLVESGGGLVQAGGSLRLSCAASGSIFSQYAMGWYRQAPGKERELVDAITYGGGSTYYADSVKGRFTISRDNAKNTVYLQMNSLKPEDTAVYYCNADGWNTYIGPRRYRYDYWGQGTQVTVSS | low polyreactivity
